Among the data in publication PMC11711090 are stoichiometry N and aggregated CPEB4 eluting in the void volume, normalized to control mice values, retold here.

One may read the stoichiometry N as the number of molecules, sites or subunits per partner or assembly.

The target of assay [1] is nCPEB4(NTD), N-terminal domain of neuronal CPEB4 (with microexon 4) (human) (UniProt Q17RY0). The assay can be described thus: SEC-MALS. A general note: SEC sorts molecules by how far they enter the pores of the column.
The target of assay [2] is CPEB4 extracted from the brains of 6-month-old TgCPEB4Δ4 mice (human | mouse (endogenous in brain)) (UniProt Q17RY0). Description: SEC + other: SDD-AGE.

On to “nCPEB4(NTD), N-terminal domain of neuronal CPEB4 (with microexon 4) (from UniProt Q17RY0-2 1-448) (domain or fragment)”, for which, in assay [1], the stoichiometry N came out at 350.
Consider “CPEB4 extracted from the brains of 6-month-old TgCPEB4Δ4 mice (from UniProt Q17RY0 1-729; Q7TN98 1-729) (natural protein)”, for which the aggregated CPEB4 eluting in the void volume, normalized to control mice in assay [2] worked out at 10.8.
